Assay results taken from publication PMC11530598 (2024).

Biological target: T1, MAP1B LC-mScarlet (Mus musculus (Mouse), UniProt P14873)
T1 chain: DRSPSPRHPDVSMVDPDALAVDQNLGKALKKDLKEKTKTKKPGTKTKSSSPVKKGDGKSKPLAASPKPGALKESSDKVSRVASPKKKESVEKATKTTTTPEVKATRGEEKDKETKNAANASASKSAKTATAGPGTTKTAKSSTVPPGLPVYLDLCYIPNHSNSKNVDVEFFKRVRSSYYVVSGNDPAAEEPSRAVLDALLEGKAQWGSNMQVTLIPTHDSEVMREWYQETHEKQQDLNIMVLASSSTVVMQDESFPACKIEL
Experiment: TIRF microscopy recruitment assay on microtubules; tested on taxol-stabilised microtubules

binding result: no binding
B1: sfGFP-MAP1B HC^1-532 (protein)
chain: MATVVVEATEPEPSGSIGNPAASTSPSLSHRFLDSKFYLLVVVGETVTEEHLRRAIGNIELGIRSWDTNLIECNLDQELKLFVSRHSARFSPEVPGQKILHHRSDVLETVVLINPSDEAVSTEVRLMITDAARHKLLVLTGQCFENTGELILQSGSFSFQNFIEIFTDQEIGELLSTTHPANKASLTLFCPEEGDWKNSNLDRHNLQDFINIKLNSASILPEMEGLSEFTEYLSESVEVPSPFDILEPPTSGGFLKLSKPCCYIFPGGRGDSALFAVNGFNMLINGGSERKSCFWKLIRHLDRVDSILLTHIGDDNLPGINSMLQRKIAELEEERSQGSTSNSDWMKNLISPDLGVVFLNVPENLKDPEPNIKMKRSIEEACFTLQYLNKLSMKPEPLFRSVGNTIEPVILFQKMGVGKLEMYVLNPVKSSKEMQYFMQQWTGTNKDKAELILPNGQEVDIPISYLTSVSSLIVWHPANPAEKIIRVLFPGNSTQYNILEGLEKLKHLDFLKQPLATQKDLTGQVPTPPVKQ
